Results: the domain aggregation screens of Martell et al. (2025)

assay: soluble fraction after stress (log2 fold change); higher = more stays soluble; pooled small domains, quantitative proteomics; details: stress: 50 degC
Method in brief: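 After stress at 50°C, the amount of each protein still soluble was measured. This was done on pooled custom libraries of small protein domains, using high-throughput quantitative proteomics. The figure given is a base-two log fold change and stands for aggregation propensity, with higher values meaning more protein stays in solution.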

Sequence | soluble fraction (log2)
HMGLTYEQILTDVQRFVTQNHADTLSNEGNPEEARKLLKDYILQYVQNRSYHVDGQTTEELVDSLYED | -0.195
HMSLSEYLSAPVLEGQRNHALFSAVMQAREQGWDEWQIRTTIGAKAEADGLRHAEIAATIRSAMSREITP | -0.121
HMDVNHVIIDHKGNSIQAIIDSIDLDNVYYQSKIKKESEVIDIDKVYFIFNDFDRVYHYDWSYYENL | -0.138
HMYYNQGILKSGASVYGEPGITSSHRLEIPSGSFVDIVQEKDEWVYYEKNHVNHGWVLRENIYIPSL | 0.0681
HMNKEKLLEMFESMSIIIVQSLEEKEQTEDRIETELFNEAKTPRYSTLTKQDIQSVIRNILITVGV | -1.84
HMDKEQVTFIFRDIDIALRSLDYPIKDIKNTLNIIKSEFSNSKSTELNEQKINFENILKEAISILENND | -0.627
HMEQVLDEEIIKSAVQKVIKDNPSAVSDYKAGKKTAFQFLIGKAMAELQGKGHPGKISELLEKE | 0.439
HMDKFTYVVKKEDEQYQIKDILRHNFTFSSRLRKKLKQNNSIFLNGAETVGWATPKEGDIISVRLP | -0.433
HMEIPTPAELREKRIRMGLKQADVARMAGISQSMVARIESGSVDPRVSTLAKIVEVLQAAER | -0.175
HMADWTETELAALRRAYASGTTRVSYDGKSVDYGSAEDLLSRIRTLQGAASDVAADAVAAVDA | 0.0524
HMGEVPPGWSVEALAAIERDLAHHVGPVARVLVQRGARLHTTTDDLRSALANAITDDLARRRFMQP | -0.416
HMNLTEIGQRIRDRREELGLSQDRLAKLGGLPRVTINQLETGSIGDLGVSKLLNLLDLLGLTLDA | -0.108
HMNQPRQRKVIFELIDERNALERVLMHFAHLEKQVEKIDERKYQVTLYYDKEDETEILIRVLSFG | -1.15
HMIGEKLKEIREKTGMNKKEFAQYLGLKYTTYNNYETEAREPASDFLILISTKFDVSIDYLLGLQ | -0.674
HMKIEDSNTIKLKANQAYKTHYYSEAIKLYDELLTKYEPNSEAIKLNLAHAHFKAKGFAAASKLYT | 0.144
HMSERQTGTVKWFNNAKGFGFITMADRPDDIFVHFRAIQGDGYRSLNEGEEVEFSLVEGPKGLQAEEVTK | 0.037
HMDIKKHISATLKREMEKRGLNFMEFSTELGIPRTTLQGYLKGTSSPQADSLEELADKLGISPAELVSG | 0.15
HMKLEEITIIVPSLRLDNFVSDLARTSRSKAVQIIDSERVFINGQNETKASKQVKLGDVITSA | -0.277
HMDFGHWAAHKLEQMSEYRLRHGEAVAIGIALDVLYSVRQGLLARPAAERILSLLERLGFTLFDPELKS | -0.213
HMIDMQIDTARFGTLGVDDDKIITFPKGLPGFEDERRFFLMDHSGSSKIKWLHSADNPGLALV | -0.0658
HMLDVNLIFSRPGFSLSAAFTLHAGGITVLRGDSGSGKTTLADLLSGAIAPQKGRILSDGDIWFDAASGIN | 0.22
HMYAHLGKNLEVVINKALAQEDPEKKAGFAHHIAYYMKLAYSNWHKELVHDDAIRSELDTITGGELEFSN | 0.499
HMSTVTEVHYIAFKNGRIVDIKAALTGSAVTATSIKEQPKIENYNYTTSEVRDGILYHTYAPVA | -1.32
HMWMEKEELLWNDIIRGGVERGELREDTDIQEAAALFRQVFIGLAYQMSFSDGLDVGILRKRFHHIYGLLT | 0.0187
HMSWEELLEHLEKAAERGEEVRIAGVTLHDEEDFKRALRWLKEWL | -1.93
HMITNSTEIEAMIDSLIKENPEQAEQYRNGNTKVVGWFVGQMMKASKGKANPQVVGDLLAQKLVG | 0.0323

Sequence | soluble fraction (log2)
HMLDEPPVSQTLTTYDREHMALYLRLLDSARDGADWREAVQILFGLDPTRDPLRSRHVHDTHLARARWM | -0.131
HMADDFISTLFSEGIIIDTEVKQFAERQGSPLQFVRHIASNLPEPRDIITMGEVRSVMREGA | -0.149
HMSNEVSYSDFVRSVESDEVNAVTLDGEQIRFVGNDGQTYSVIKPADAQITQLLIDNNVTVRAEQQ | 0.0224
HMEIFSIEPDSYLGSGEEIASYYREGVTVIVNMAKLSDAESLRMVDFMSGLKLALLGNIKRITKHVYLLTP | -0.0901
HMTDDPGLSRAENRELQTLLLDRGHDIGQPDGLIGAKTRAAIRAEQSRLNMPVNGRGGQKLLRALRL | 0.372
HMKLTINIDAAHDGKTIKQLFAEKGYSLELIKKFKYDGAIEVNGERKTVRWVLREGDLLVLEAN | -1.25
HMGLVVIGTEAGYPAEKAGILAGDRIRKLNGAAVPDYDTFLTALAARKGEPSAIELERDGKTLEVTVSPL | 0.0119
HMLTGDVDRYKDFFIALEKTSPVPIGFEKIIGGAHGYYHLEDKRIAIDEGMSELQTLKTAIHEIAHAKLHD | -0.14
HMWNPVLVVRGDFPKDLATTLLKMIFAQKEALNPHILFQNLLRTDNITFRESYPYHSASKTMFRF | -0.148
HMNIMNINQALNVLNLKGTVSKEELAKAYKKMAIKYHPDRNPTGVEMMKVINSAYEFLKGLNLEEIKH | 0.256
HMPILRDEVYLSIKEAILTGELAPGERISIGRLLPQIGFSPTPIREALLKLEQEGFVSRLQRGGFIVSR | -0.991
HMSQLLHELLAHVLKDRIISGEWPAGSRIMSEHALQERYGVSRGTVRRALAQLVQEGLLVQRKGKGTFVTR | -1.65
HMQNELAEARSQLAERKNIDQAKLILMKKRNISEPEAYKLLRSHAMQTNRRVAEVAESIITAESLLG | 0.0394
HMVEVPKVAGMSTAQGVSELEQKGFVVNRTESYDDTVPKGNIISQTPEGGTKVPSGSAVTIKISQGAE | -0.157
HMDRKFFYEDQYQDYLGEELKVSFFDTDNKKTVRGTLSEVTPHGIKINLEQETQEIPFSSIIQANLI | 0.201
HMTELSLSEQAYQQLRRMIVRLDFAPGDVLREEALQEALGMSRTPIREALQRLAREHFVTVIPRRGMFVS | -2.28
HMHLIPRESTYEIDGRRFVVDSVNLDFGKVSLQDITFRNATGFPIFRSESIEFMRRLVEISEAQRIAEL | -0.00889
HMRDPVDKDNYLGDWDKNKTYPAGYVMTFGDKNYLALQEVPAGTKPGATDPDPFWVLDTGKTLKD | -0.0888
HMKSLLSRREQEVLELVSRGFSYSEIAELKNLSVHTIQTHIKSLYGKLEVHSKMEAVLEATRMGLLPQ | -1.8
HMYIDLHEIWKSLTDEEQTVVKLLETEPAHVDTLIENSQIPASRILATLTLLEVRGIVKRLPGRMFSLAD | -1.45
HMGITDHIYQDLKKRLENGNYPAGTRFPSESTLADEFSVNKMTMNKIVSMLAEQGYLIRGNRGAGTRVAEN | -0.0862
HMLIELKIPSEWAGKSLHTLNLRQNYNVNVIGFRDEKSGKLNTHFDPSKKLPDEGIILVVADNRTLEKF | -0.837
HMGQDLEAFLLKAVGQLDQGDGVTLDALLKVAVSNGGFVREVAEAKLDDMLDAGTLDEPRFGWFRVGAT | -0.742
HMPLDKDTTLDEIYRRFNMEHPADYKGHSLSMGDIVVFRQDGKQTAYYVDEGADYRQVPEFFVK | 0.0346
HMVPPVVRTIYGAGGKMTATFLFPGGYEVDAASGAELPGKYRVESISLDQVVLTDKDGNRVPVGFSSVAPT | 0.0614
HMFIPMTDAQRHLFANKLAKLPELSEYSRGTESYEDFAIRIADMLLEPPKFRMFYPLLEQLGF | -1.88

Sequence | soluble fraction (log2)
HMKKEDFLEILRDYLKKGFSEDEVMDILRDYEEYFVDGIIEGKSEIEIIQSLGSPKEIANELLAES | -0.202
HMGSVHDAATDRIREMILGGQFEPGERLRQDDLATSLGVSTMPVREALRQLQAEGLVVFYPRKGAVVAR | 0.142
HMTDNSTTTIRNLKIEWLLEEIRNAVRTGVSVDAAVERISNNPFVKPPEDLLNEARIIFLQNAGQI | -0.166
HMIVKQPDIRKQELLDIGVRLYFEAGEKGVSIQQVVKQAGVATGLFYYYFSSKDAFLDEALNDYID | 0.102
HMELNELTSRELMVAEQVARGASNREISEALSISERTVKAHLSAAFEKLGVRDRVQLALAMNNIPT | -0.0086
HMIHANGLTDRQEMILEFIRSYISENNYPPSVREIGKGVGLASSASVHNNMKKLASLGFLNWDTD | -1.25
HMKSLAQELVDALGDRIRDGRLKVGDKLPSEAAIEAQYGVSRTVVREAISRLQAAGLVVTRHGIGTFIVGI | -0.804
HMFKNWMPFDEARIFVRKLKFNSHDEFRKYLKANEINIPSKPWSTYKGKGWVSIGDFLGTHR | -2.82
HMKKNTEALDYYKKAGANFPEDEVISSEYLFRAAQLQEVLGKTDEAVAIYKDIKAKYPTTEIGLNVDKFIL | -0.0868
HMVPEETKQFINQLNHGSLSIRMNAANNLEKLGLLAIPEIEAALPKAHGEAAFRLPRLLHALVLRETEYF | -0.00885
HMDEFHLSERERQILNLLVLGHTYKHIASDLNIAYATVNKHVSNVYAKLRVQSASEAVALAIRKGL | -0.899
HMETVMYLRQIKRPQGIYLAIQESYYDSSKKQSRTRTIESIGYLDNLRKEYEDPIAFFSQKAAAMTSEKKK | -1.51
HMTLPGQDFIRASQLKELIAKYDKQYYEEGVSDISDAEYDRLYEEYLEFENKYPELKDMADAPTKRV | 0.332
HMNKEDIASNEKLLGLLNHMSKVLKDIDFIKDDRPMIVRKINHIFKKATLSEEEINILRGVLSAIENHS | -0.479
HMLGERIRTLRKEIGMSVTELARRVKTSPSHISEIERGEKMPSLNLLVKIAKELKTSIDYLTGLVG | -0.0679
HMKYRPGDVVTLRVARMGEMGAFLDAGTGNTNDDILLHKMQQTEEIKAGQDVKVYLYLDPNRRLTASMKL | -0.108
HMDVPNLVGKTLEEAENELKKLNIRYNVTERADEAPKDTVIEQSPKPYEAMEPGTVVNLVISSGPA | 0.533
HMTEKMILKWKEALERMNDDFTTKDWLNVVIHEMGKSERTAYGWLSDMKRSGIIKDLGYGSWLKVLE | -0.738
HMITETIGANIKTLRDKFRMSQQDLASKMNTARPVISNWENGKTEPSSSQLLKLAKIFDTSTDKILGNV | 0.163
HMTVKNFNDLPGFKNENLAELKAMGITTISELAEALNDGGKIKEIIKNLSGVGPKTAEKWKDAIG | ≥ 0.62
HMSNLVEVPAVIGRMKEDAITMLISAGLEPAVTYDEYPLVKENLVADQSVAPGQKVEKGSFVTITVSRS | -0.0475
HMTYGYFELKAKNLDSLKQFLKGIAQVESIEEENNGLKVFLKNELESEELSEKLAEAKIFVSHLAKKK | 0.0782
HMISFLNFVRKEIDASQLKDSTKQNHLTTIGLLQSFKPSIEFKDLNYNFITSFEKYLYDAGYQM | 0.133
HMVENMDEFIGRVRRLVSDRLDLLKEASDDEIRETISQVVLELSREQFLTLNEKKTVLEGVFNSMR | -0.399
